According to US20130158095:

Target: TK substrate 1 (HTRF KinEASE-TK kit; Cisbio Inc.)

B1: EML4-ALK fusion polypeptide v1 having the FLAG tag at the N-terminus (protein)
chain: GFAGSLDDSISAASTSDVQDRLSALESRVQQQEDEITVLKAALADVLRRLAISEDHVASVKKSVSSKGQPSPRAVIPMSCITNGSGANRKPSHTSAVSIAGKETLSSAAKSGTEKKKEKPQGQREKKEESHSNDQSPQIRASPSPQPSSQPLQIHRQTPESKNATPTKSIKRPSPAEKSHNSWENSDDSRNKLSKIPSTPKLIPKVTKTADKHKDVIINQEGEYIKMFMRGRPITMFIPSDVDNYDDIRTELPPEKLKLEWAYGYRGKDCRANVYLLPTGEIVYFIASVVVLFNYEERTQRHYLGHTDCVKCLAIHPDKIRIATGQIAGVDKDGRPLQPHVRVWDSVTLSTLQIIGLGTFERGVGCLDFSKADSGVHLCVIDDSNEHMLTVWDWQKKAKGAEIKTTNEVVLAVEFHPTDANTIITCGKSHIFFWTWSGNSLTRKQGIFGKYEKPKFVQCLAFLGNGDVLTGDSGGVMLIWSKTTVEPTPGKGPKVYRRKHQELQAMQMELQSPEYKLSKLRTSTIMTDYNPNYCFAGKTSSISDLKEVPRKNITLIRGLGHGAFGEVYEGQVSGMPNDPSPLQVAVKTLPEVCSEQDELDFLMEALIISKFNHQNIVRCIGVSLQSLPRFILLELMAGGDLKSFLRETRPRPSQPSSLAMLDLLHVARDIACGCQYLEENHFIHRDIAARNCLLTCPGPGRVAKIGDFGMARDIYRASYYRKGGCAMLPVKWMPPEAFMEGIFTSKTDTWSFGVLLWEIFSLGYMPYPSKSNQEVLEFVTSGGRMDPPKNCPGPVYRIMTQCWQHQPEDRPNFAIILERIEYCTQDPDVINTALPIEYGPLVEEEEKVPVRPKDPEGVPPLLVSQQAKREEERSPAAPPPLPTTSSGKAAKKPTAAEVSVRVPRGPAVEGGHVNMAFSQSNPPSELHRVHGSRNKPTSLWNPTYGSWFTEKPTKKNNPIAKKEPHERGNLGLEGSCTVPPNVATGRLPGASLLLEPSSLTANMKEVPLFRLRHFPCGNVNYGYQQQGLPLEAATAPGAGHYEDTILKSKNSMNQPGP
count of HTRF (that is, phosphorylation of the peptide substrate): increased by about 12 times by the addition of ATP compare to no addition of ATP
